Measurements: patent publication US8114412B2, “T. cruzi-derived neurotrophic agents and methods of use therefor” (priority 1999, dated 2012)
“Also recorded” adds a separate entry of the source.

Test system: mouse splenocytes, bone marrow cells, and peritoneal cells
Assay: IL-6 secretion by naive mouse cells
Format: cell-based
Details: peritoneal cells from BALB/c and other strains of mice

B1: TS: T. cruzi trans-sialidase purified by immuno-affinity chromatography from supernatants of infected Vero cells (SEQ ID NO:2, SEQ ID NO:34) (protein, listed as Trypanosoma cruzi)
chain: MVAIADARYETSSENSLIDTVAKYSVDDGETWETQIAIKNSRVSSVSRVVDPTVIVKGNKLYVLVGSYYSSRSYWSSHGDARDWDILLAVGEVTKSTAGGKITASIKWGSPVSLKKFFPAEMEGMHTNQFLGGAGVAIVASNGNLVYPVQVTNKRKQVFSKIFYSEDDGKTWKFGKGRSDFGCSEPVALEWEGKLIINTRVDWKRRLVYESSDMEKPWVEAVGTVSRVWGPSPKSNQPGSQTSFTAVTIEGMRVMLFTHPLNFKGRCVRDRLNLWLTDNQRIYNVGQVSIGDENSAYSSVLYKDDKLYCLHEINTDEVYSLVFARLVGELRIIKSVLRSWKNWTATCPAFAPLLIQPLRRQRVVVVPLSPRLVLLAFCRQRLPKRMGGSYRCVNASTANAERVRNGLKFAGVGGGALWPVSQQGQNQRYRFANHAFTLVASVTIHEAPRAASPLLGASLDSSGGKKLLGLSYDEKHQWQPIYGSTPVTPTGSWETGKRYHLVLTMANKIGSVYIDGELLEGSGQTVVPDGRTPDISHFYVGGYKRSDMPTISHVTVNNVLLYNRRQLNTEEIRTLFLSQDLIGTEAHMDSSSDSSAHSTPSTPADSSAHSTPSTPVDSSAHSTPSTPADSSAHGTPSTPVDSSAHGTPSTPADSSAHGTPSTPVDSSAHSTPSTPVDSSAHSTPSTPVDSSAHGAPSTPADSSAHGTPSTPVDSSAHGTPSTPADSSAHSTPSTPADSSAHSTPSTPADSSAHSTPSTPVDSSAHGTPSTPADSSAHSTPSTPADSSAHGTPSTPVDSSAHSTPSTPVDSSAHGTPSTPVDSSAHSTPSTPVDSSAHGTPSTPVDSSAHSTPSTPADSSAHSTPSTPADSSAHGTPSTPVDSSAHSTPSTPADSSAHSTPSTPVDSSAHSTPSTPADSSAHGTPSTPVDSSAHGTPSTPADSSAHSTPSTPADSSAHSTPSTPADSSAHSTPSTPVDSSAHSTPSTPADSSAHSTPSTPADSSAHSTPSTPADSSAHSTPSTPVDSSAHSTPSTPADSSAHGTPSTPADSSAHSTPSTPVDSSAHSTPSTPADSSAHGTPSTPADSSAHSTPSTPADSSAHGTPSTPADSSAHSTPSTPAGSSANGTVLILPDGAALSTFSGGGLLLCACALLLHVFFMAVF
IL-6 secretion by naive mouse cells: potently and specifically induced IL-6 secretion; also recorded: upregulator of IL-6 secretion
